Assay results reported in the supplement of paper PMC5998384.

Experiments:
[1] = test system: HeLa Kyoto; experiment: solubility in G1/S (NP-40 vs SDS abundance) (log2 ratio); higher = more soluble; conditions: cell cycle stage: G1/S
[2] = test system: HeLa Kyoto; experiment: melting temperature (median over replicates), in situ; higher = more thermally stable
[3] = test system: HeLa Kyoto; experiment: solubility change mitosis vs G1/S (difference of NP-40 vs SDS log2 ratios) (log2 ratio difference); higher = more soluble in mitosis
[4] = test system: HeLa Kyoto; experiment: thermal stability score vs G1/S (z-score of summed log2 fold changes over temperatures); higher = more thermally stable than in G1/S
[5] = cell cycle stage: early G1 (4.5 h after nocodazole release)
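Wherever melting temperature (median over replicates), in situ is given: HeLa Kyoto cells synchronized by double thymidine or nocodazole block, proteins quantified by TMT10plex mass spectrometry, three independent biological replicates.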
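Wherever solubility change mitosis vs G1/S (difference of NP-40 vs SDS log2 ratios) is given: synchronized HeLa Kyoto cells (double thymidine block for G1/S, nocodazole release for mitosis), protein amounts in NP-40 versus SDS lysates quantified by mass spectrometry, three biological replicates.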
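Wherever solubility in G1/S (NP-40 vs SDS abundance) is given: HeLa Kyoto cells arrested at G1/S by double thymidine block, proteins quantified by TMT10plex mass spectrometry in mild NP-40 versus SDS extracts, three biological replicates.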
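Wherever thermal stability score vs G1/S (z-score of summed log2 fold changes over temperatures) is given: synchronized HeLa Kyoto cells, proteins quantified by TMT10plex mass spectrometry, three biological replicates, mitosis taken 0.5 h after nocodazole release, G1/S directly after double thymidine block.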

| Sequence | solubility in G1/S (log2) [1] | melting temperature ([2]; cell cycle stage: G1/S) | melting temperature ([2]; cell cycle stage: mitosis) | solubility change mitosis (log2) [3] | thermal stability score [4, 5] | thermal stability score ([4]; cell cycle stage: mitosis) |
| --- | --- | --- | --- | --- | --- | --- |
| MDMKRRIHLELRNRTPAAVRELVLDNCKSNDGKIEGLTAEFVNLEFLSLINVGLISVSNLPKLPKLKKLELSENRIFGGLDMLAEKLPNLTHLNLSGNKLKDISTLEPLKKLECLKSLDLFNCEVTNLNDYRESVFKLLPQLTYLDGYDREDQEAPDSDAEVDGVDEEEEDEEGEDEEDEDDEDGEEEEFDEEDDEDEDVEGDEDDDEVSEEEEEFGLDEEDEDEDEDEEEEEGGKGEKRKRETDDEGEDD [ANP32B] | -0.0836 | 48.5 °C | 53.3 °C | 0.205 | 2.33 | 3.78 |
| MDNQCTVQVRLELGHRAQLRKKPTTEGFTHDWMVFVRGPEQCDIQHFVEKVVFWLHDSFPKPRRVCKEPPYKVEESGYAGFIMPIEVHFKNKEEPRKVCFTYDLFLNLEGNPPVNHLRCEKLTFNNPTTEFRYKLLRAGGVMVMPEGADTVSRPSPDYPMLPTIPLSAFSDPKKTKPSHGSKDANKESSKTSKPHKVTKEHRERPRKDSESKSSSKELEREQAKSSKDTSRKLGEGRLPKEEKAPPPKAAFKEPKMALKETKLESTSPKGGPPPPPPPPPRASSKRPATADSPKPSAKKQKKSSSKGSRSAPGTSPRTSSSSSFSDKKPAKDKSSTRGEKVKAESEPREAKKALEVEESNSEDEASFKSESAQSSPSNSSSSSDSSSDSDFEPSQNHSQGPLRSMVEDLQSEESDEDDSSSGEEAAGKTNPGRDSRLSFSDSESDNSADSSLPSREPPPPQKPPPPNSKVSGRRSPESCSKPEKILKKGTYDKAYTDELVELHRRLMALRERNVLQQIVNLIEETGHFNVTNTTFDFDLFSLDETTVRKLQSCLEAVAT [MLLT1] | -0.205 | 50.5 °C | 53 °C | 0.264 | -0.27 | 0.333 |
| MDPAARVVRALWPGGCALAWRLGGRPQPLLPTQSRAGFAGAAGGPSPVAAARKGSPRLLGAAALALGGALGLYHTARWHLRAQDLHAERSAAQLSLSSRLQLTLYQYKTCPFCSKVRAFLDFHALPYQVVEVNPVRRAEIKFSSYRKVPILVAQEGESSQQLNDSSVIISALKTYLVSGQPLEEIITYYPAMKAVNEQGKEVTEFGNKYWLMLNEKEAQQVYGGKEARTEEMKWRQWADDWLVHLISPNVYRTPTEALASFDYIVREGKFGAVEGAVAKYMGAAAMYLISKRLKSRHRLQDNVREDLYEAADKWVAAVGKDRPFMGGQKPNLADLAVYGVLRVMEGLDAFDDLMQHTHIQPWYLRVERAITEASPAH [PTGES2] | 0.0509 | 54.6 °C | 54.9 °C | -0.0374 | 1.5 | 0.796 |
| MDPECAQLLPALCAVLVDPRQPVADDTCLEKLLDWFKTVTEGESSVVLLQEHPCLVELLSHVLKVQDLSSGVLSFSLRLAGTFAAQENCFQYLQQGELLPGLFGEPGPLGRATWAVPTVRSGWIQGLRSLAQHPSALRFLADHGAVDTIFSLQGDSSLFVASAASQLLVHVLALSMRGGAEGQPCLPGGDWPACAQKIMDHVEESLCSAATPKVTQALNVLTTTFGRCQSPWTEALWVRLSPRVACLLERDPIPAAHSFVDLLLCVARSPVFSSSDGSLWETVARALSCLGPTHMGPLALGILKLEHCPQALRTQAFQVLLQPLACVLKATVQAPGPPGLLDGTADDATTVDTLLASKSSCAGLLCRTLAHLEELQPLPQRPSPWPQASLLGATVTVLRLCDGSAAPASSVGGHLCGTLAGCVRVQRAALDFLGTLSQGTGPQELVTQALAVLLECLESPGSSPTVLKKAFQATLRWLLSSPKTPGCSDLGPLIPQFLRELFPVLQKRLCHPCWEVRDSALEFLTQLSRHWGGQADFRCALLASEVPQLALQLLQDPESYVRASAVTAMGQLSSQGLHAPTSPEHAEARQSLFLELLHILSVDSEGFPRRAVMQVFTEWLRDGHADAAQDTEQFVATVLQAASRDLDWEVRAQGLELALVFLGQTLGPPRTHCPYAVALPEVAPAQPLTEALRALCHVGLFDFAFCALFDCDRPVAQKSCDLLLFLRDKIASYSSLREARGSPNTASAEATLPRWRAGEQAQPPGDQEPEAVLAMLRSLDLEGLRSTLAESSDHVEKSPQSLLQDMLATGGFLQGDEADCY [BRAT1] | 0.0286 | 46.5 °C | 48.4 °C | -0.141 | 1.55 | 4.01 |
| MDPFTEKLLERTRARRENLQRKMAERPTAAPRSMTHAKRARQPLSEASNQQPLSGGEEKSCTKPSPSKKRCSDNTEVEVSNLENKQPVESTSAKSCSPSPVSPQVQPQAADTISDSVAVPASLLGMRRGLNSRLEATAASSVKTRMQKLAEQRRRWDNDDMTDDIPESSLFSPMPSEEKAASPPRPLLSNASATPVGRRGRLANLAATICSWEDDVNHSFAKQNSVQEQPGTACLSKFSSASGASARINSSSVKQEATFCSQRDGDASLNKALSSSADDASLVNASISSSVKATSPVKSTTSITDAKSCEGQNPELLPKTPISPLKTGVSKPIVKSTLSQTVPSKGELSREICLQSQSKDKSTTPGGTGIKPFLERFGERCQEHSKESPARSTPHRTPIITPNTKAIQERLFKQDTSSSTTHLAQQLKQERQKELACLRGRFDKGNIWSAEKGGNSKSKQLETKQETHCQSTPLKKHQGVSKTQSLPVTEKVTENQIPAKNSSTEPKGFTECEMTKSSPLKITLFLEEDKSLKVTSDPKVEQKIEVIREIEMSVDDDDINSSKVINDLFSDVLEEGELDMEKSQEEMDQALAESSEEQEDALNISSMSLLAPLAQTVGVVSPESLVSTPRLELKDTSRSDESPKPGKFQRTRVPRAESGDSLGSEDRDLLYSIDAYRSQRFKETERPSIKQVIVRKEDVTSKLDEKNNAFPCQVNIKQKMQELNNEINMQQTVIYQASQALNCCVDEEHGKGSLEEAEAERLLLIATGKRTLLIDELNKLKNEGPQRKNKASPQSEFMPSKGSVTLSEIRLPLKADFVCSTVQKPDAANYYYLIILKAGAENMVATPLASTSNSLNGDALTFTTTFTLQDVSNDFEINIEVYSLVQKKDPSGLDKKKKTSKSKAITPKRLLTSITTKSNIHSSVMASPGGLSAVRTSNFALVGSYTLSLSSVGNTKFVLDKVPFLSSLEGHIYLKIKCQVNSSVEERGFLTIFEDVSGFGAWHRRWCVLSGNCISYWTYPDDEKRKNPIGRINLANCTSRQIEPANREFCARRNTFELITVRPQREDDRETLVSQCRDTLCVTKNWLSADTKEERDLWMQKLNQVLVDIRLWQPDACYKPIGKP [ANLN] | -0.029 | 47 °C | 49.6 °C | 0.0107 | 5.84 | 9.22 |
| MDPLGAPSQFVDVDTLPSWGDSCQDELNSSDTTAEIFQEDTVRSPFLYNKDVNGKVVLWKGDVALLNCTAIVNTSNESLTDKNPVSESIFMLAGPDLKEDLQKLKGCRTGEAKLTKGFNLAARFIIHTVGPKYKSRYRTAAESSLYSCYRNVLQLAKEQSMSSVGFCVINSAKRGYPLEDATHIALRTVRRFLEIHGETIEKVVFAVSDLEEGTYQKLLPLYFPRSLKEENRSLPYLPADIGNAEGEPVVPERQIRISEKPGAPEDNQEEEDEGLGVDLSFIGSHAFARMEGDIDKQRKLILQGQLSEAALQKQHQRNYNRWLCQARSEDLSDIASLKALYQTGVDNCGRTVMVVVGRNIPVTLIDMDKALLYFIHVMDHIAVKEYVLVYFHTLTSEYNHLDSDFLKKLYDVVDVKYKRNLKAVYFVHPTFRSKVSTWFFTTFSVSGLKDKIHHVDSLHQLFSAISPEQIDFPPFVLEYDARENGPYYTSYPPSPDL [GDAP2] | 0.111 | 48.2 °C | 49.1 °C | -0.148 | 0.35 | 0.405 |
| MDPSLLRERELFKKRALSTPVVEKRSASSESSSSSSKKKKTKVEHGGSSGSKQNSDHSNGSFNLKALSGSSGYKFGVLAKIVNYMKTRHQRGDTHPLTLDEILDETQHLDIGLKQKQWLMTEALVNNPKIEVIDGKYAFKPKYNVRDKKALLRLLDQHDQRGLGGILLEDIEEALPNSQKAVKALGDQILFVNRPDKKKILFFNDKSCQFSVDEEFQKLWRSVTVDSMDEEKIEEYLKRQGISSMQESGPKKVAPIQRRKKPASQKKRRFKTHNEHLAGVLKDYSDITSSK [GTF2E2] | 0.797 | 48.9 °C | 50.2 °C | 0.135 | 1.36 | 3.1 |
| MDPTAGSKKEPGGGAATEEGVNRIAVPKPPSIEEFSIVKPISRGAFGKVYLGQKGGKLYAVKVVKKADMINKNMTHQVQAERDALALSKSPFIVHLYYSLQSANNVYLVMEYLIGGDVKSLLHIYGYFDEEMAVKYISEVALALDYLHRHGIIHRDLKPDNMLISNEGHIKLTDFGLSKVTLNRDINMMDILTTPSMAKPRQDYSRTPGQVLSLISSLGFNTPIAEKNQDPANILSACLSETSQLSQGLVCPMSVDQKDTTPYSSKLLKSCLETVASNPGMPVKCLTSNLLQSRKRLATSSASSQSHTFISSVESECHSSPKWEKDCQESDEALGPTMMSWNAVEKLCAKSANAIETKGFNKKDLELALSPIHNSSALPTTGRSCVNLAKKCFSGEVSWEAVELDVNNINMDTDTSQLGFHQSNQWAVDSGGISEEHLGKRSLKRNFELVDSSPCKKIIQNKKTCVEYKHNEMTNCYTNQNTGLTVEVQDLKLSVHKSQQNDCANKENIVNSFTDKQQTPEKLPIPMIAKNLMCELDEDCEKNSKRDYLSSSFLCSDDDRASKNISMNSDSSFPGISIMESPLESQPLDSDRSIKESSFEESNIEDPLIVTPDCQEKTSPKGVENPAVQESNQKMLGPPLEVLKTLASKRNAVAFRSFNSHINASNNSEPSRMNMTSLDAMDISCAYSGSYPMAITPTQKRRSCMPHQQTPNQIKSGTPYRTPKSVRRGVAPVDDGRILGTPDYLAPELLLGRAHGPAVDWWALGVCLFEFLTGIPPFNDETPQQVFQNILKRDIPWPEGEEKLSDNAQSAVEILLTIDDTKRAGMKELKRHPLFSDVDWENLQHQTMPFIPQPDDETDTSYFEARNTAQHLTVSGFSL [MASTL] | 0.0696 | 48.4 °C | 50.5 °C | -0.0152 | 2.99 | 5.64 |
| MDQCVTVERELEKVLHKFSGYGQLCERGLEELIDYTGGLKHEILQSHGQDAELSGTLSLVLTQCCKRIKDTVQKLASDHKDIHSSVSRVGKAIDKNFDSDISSVGIDGCWQADSQRLLNEVMVEHFFRQGMLDVAEELCQESGLSVDPSQKEPFVELNRILEALKVRVLRPALEWAVSNREMLIAQNSSLEFKLHRLYFISLLMGGTTNQREALQYAKNFQPFALNHQKDIQVLMGSLVYLRQGIENSPYVHLLDANQWADICDIFTRDACALLGLSVESPLSVSFSAGCVALPALINIKAVIEQRQCTGVWNQKDELPIEVDLGKKCWYHSIFACPILRQQTTDNNPPMKLVCGHIISRDALNKMFNGSKLKCPYCPMEQSPGDAKQIFF [RMND5A] | 0.298 | 51.1 °C | – | -0.047 | 0.294 | 0.672 |
| MDQPFTVNSLKKLAAMPDHTDVSLSPEERVRALSKLGCNITISEDITPRRYFRSGVEMERMASVYLEEGNLENAFVLYNKFITLFVEKLPNHRDYQQCAVPEKQDIMKKLKEIAFPRTDELKNDLLKKYNVEYQEYLQSKNKYKAEILKKLEHQRLIEAERKRIAQMRQQQLESEQFLFFEDQLKKQELARGQMRSQQTSGLSEQIDGSALSCFSTHQNNSLLNVFADQPNKSDATNYASHSPPVNRALTPAATLSAVQNLVVEGLRCVVLPEDLCHKFLQLAESNTVRGIETCGILCGKLTHNEFTITHVIVPKQSAGPDYCDMENVEELFNVQDQHDLLTLGWIHTHPTQTAFLSSVDLHTHCSYQLMLPEAIAIVCSPKHKDTGIFRLTNAGMLEVSACKKKGFHPHTKEPRLFSICKHVLVKDIKIIVLDLR [STAMBPL1] | -0.0141 | 50.3 °C | 51 °C | -0.137 | -0.397 | -0.032 |
